Measurements from publication doi:10.1101/323444.

Legend:
Test in all cases: SEC
[1] = target: CckA ΔPAS-A ΔRD (Caulobacter crescentus)
[2] = target: CckA (WT, N-terminal His-tag in place of its transmembrane helices) (Caulobacter crescentus) (UniProt Q9X688)
[3] = target: CckA ΔPAS-A-B ΔRD (Caulobacter crescentus)
[4] = target: CckA ΔPAS-A (Caulobacter crescentus)

With CckA ΔPAS-A ΔRD (domain or fragment) the stoichiometry N (CckA per complex) [1] was 2.

“CckA (WT, N-terminal His-tag in place of its transmembrane helices) (from UniProt Q9X688 1-691) (enzyme)” gave a stoichiometry N (CckA per complex) [2] of 4.

Work on CckA ΔPAS-A-B ΔRD (domain or fragment) yielded a stoichiometry N (CckA per complex) [3] of 2.

Substance CckA ΔPAS-A (domain or fragment) has a stoichiometry N (CckA per complex) [4] of 3.1.
